# Molecular target: SARS-CoV-2 HR2 protein (heptad repeat 2 of the S2 subunit of the spike protein) (SARS-CoV-2)
# Assay: ELISA
substance,measurement,value
SARS-CoV-2 HR1 protein (heptad repeat 1 of the S2 subunit of the spike protein) (domain or fragment),IC50,47.8 nM

# Reference: paper PMC10219671
